The values below come from patent publication US20050260197A1 (IMMUNEX, published 2005).

The target in experiment [1] is T1, oncostatin M (125I-labeled) (UniProt P13725 26-221, limits assumed, radioiodinated (125I)).
T1 construct: also called OSM; 125I-OSM
T1 sequence (looked up): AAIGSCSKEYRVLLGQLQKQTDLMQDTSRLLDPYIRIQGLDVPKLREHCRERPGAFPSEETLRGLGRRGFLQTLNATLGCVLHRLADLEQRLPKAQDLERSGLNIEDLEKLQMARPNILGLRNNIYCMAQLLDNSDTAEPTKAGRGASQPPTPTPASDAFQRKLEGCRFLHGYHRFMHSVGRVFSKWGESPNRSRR
As to the kind of experiment: 125I-oncostatin M binding to Fc fusion captured on Protein A beads. The method, then: (§1) The transfected cells were cultured to allow expression and secretion of the fusion proteins into the culture medium. Cross-linked agarose beads bearing Protein A (Protein A Sepharose CL-4B, Pharmacia Biotech, Inc., Piscataway, N.J.) were added to the culture supernatants, whereupon the fusion proteins bound to the beads via the interaction of the Fc moiety with the Protein A. Radioiodinated oncostatin M or radioiodinated LIF was also added to the culture supernatants. Preparation of ¹²⁵I-oncostatin M is described in example 2 above. Among the known procedures for purifying and radioiodinating LIF are those described in example 1 of U.S. Pat. No. 5,284,755. The ¹²⁵I-LIF employed in this assay was recombinant human LIF labeled with 125I using the enzymobead reagent (BioRad).
(§2) The culture supernatants were incubated with the Protein A beads and ¹²⁵I-LIF or ¹²⁵I-oncostatin M for 18 hours at 4° C. Free and cell-bound ¹²⁵I-LIF or ¹²⁵i-oncostatin M were separated by low speed centrifugation through a single step density gradient of 3% glucose in PBS. The bead-bound radioiodinated proteins were quantified on a Packard Autogamma counter.

The target in experiment [2] is T2, recombinant human leukemia inhibitory factor (125I-labeled) (human, UniProt P15018 23-202, radioiodinated (125I)).
T2 construct: also called LIF; 125I-LIF
Description: 125I-LIF binding to Fc fusion captured on Protein A beads. The method, then:
as §1, §2

For experiment [3], the target named is T2, recombinant human leukemia inhibitory …. As to the kind of experiment: 125I-LIF binding to Fc fusions captured on Protein A beads. On the procedure: as §1, §2

T2 sequence (P15018 23-202 limits assumed): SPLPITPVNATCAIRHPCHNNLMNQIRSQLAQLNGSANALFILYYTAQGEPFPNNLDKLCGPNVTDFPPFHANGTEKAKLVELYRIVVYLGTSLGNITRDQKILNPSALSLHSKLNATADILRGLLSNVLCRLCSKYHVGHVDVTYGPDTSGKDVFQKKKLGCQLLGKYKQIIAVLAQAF

B1: soluble OSM-Rβ/Fc fusion protein (Fc fusion)
chain: ERLPLTPVSLKVSTNSTRQSLHLQWTVHNLPYHQELKMVFQIQISRIETSNVIWVGNYSTTVKWNQVLHWSWESELPLECATHFVRIKSLVDDAKFPEPNFWSNWSSWEEVSVQDSTGQDILFVFPKDKLVEEGTNVTICYVSRNIQNNVSCYLEGKQIHGEQLDPHVTAFNLNSVPFIRNKGTNIYCEASQGNVSEGMKGIVLFVSKVLEEPKDFSCETEDFKTLHCTWDPGTDTALGWSKQPSQSYTLFESFSGEKKLCTHKNWCNWQITQDSQETYNFTLIAENYLRKRSVNILFNLTHRVYLMNPFSVNFENVNATNAIMTWKVHSIRNNFTYLCQIELHGEGKMMQYNVSIKVNGEYFLSELEPATEYMARVRCADASHFWKWSEWSGQNFTTLEAAPSEAPDVWRIVSLEPGNHTVTLFWKPLSKLVEPRSCDKTHTCPPCPAPELLGGPSVFLFPPKPKDTLMISRTPEVTCVVVDVSHEDPEVKFNWYVDGVEVHNAKTKPREEQYNSTYRVVSVLTVLHQDWLNGKDYKCKVSNKALPAPMQKTISKAKGQPREPQVYTLPPSRDELTKNQVSLTCLVKGFYPRHIAVEWESNGQPENNYKTTPPVLDSDGSFFLYSKLTVDKSRWQQGNVFSCSVMHEALHNHYTQKSLSLSPGK
notes: Truncated extracellular domain of OSM-Rβ; Tested from culture supernatant, captured on Protein A beads; also called experiment D
For B1, the binding result in experiment [1] and in experiment [2] was “no binding” each time.

B2: soluble human gp130/Fc fusion protein (Fc fusion)
chain: ELLDPCGYISPESPVVQLHSNFTAVCVLKEKCMDYFHVNANYIVWKTNHFTIPKEQYTIINRTASSVTFTDIASLNIQLTCNILTFGQLEQNVYGITIISGLPPEKPKNLSCIVNEGKKMRCEWDGGRETHLETNFTLKSEWATHKFADCKAKRDTPTSCTVDYSTVYFVNIEVWVEAENALGKVTSDHINFDPVYKVKPNPPHNLSVINSEELSSILKLTWTNPSIKSVIILKYNIQYRTKDASTWSQIPPEDTASTRSSFTVQDLKPFTEYVFRIRCMKEDGKGYWSDWSEEASGITYEDRPSKAPSFWYKIDPSHTQGYRTVQLVWKTLPPFEANGKILDYEVTLTRWKSHLQNYTVNATKLTVNLTNDRYLATLTVRNLVGKSDAAVLTIPACDFQATHPVMDLKAFPKDNMLWVEWTTPRESVKKYILEWCVLSDKAPCITDWQQEDGTVHRTYLRGNLAESKCYLITVTPVYADGPGSPESIKAYLKQAPPSKGPTVRTKKVGKNEAVLEWDQLPVDVQNGFIRNYTIFYRTIIGNETAVNVDSSHTEYTLSSLTSDTLYMVRMAAYTDEGGKDGPEPRSCDKTHTCPPCPAPELLGGPSVFLFPPKPKDTLMISRTPEVTCVVVDVSHEDPEVKFNWYVDGVEVHNAKTKPREEQYNSTYRVVSVLTVLHQDWLNGKDYKCKVSNKALPAPMQKTISKAKGQPREPQVYTLPPSRDELTKNQVSLTCLVKGFYPRHIAVEWESNGQPENNYKTTPPVLDSDGSFFLYSKLTVDKSRWQQGNVFSCSVMHEALHNHYTQKSLSLSPGK
notes: Tested from culture supernatant, captured on Protein A beads; also called soluble gp130/Fc; experiment B; not shown: 7 amino acid peptide linker encoded by the polylinker of plasmid hIgG1Fc
B2: the binding result in experiment [2] was “no binding”.

B3: proteins expressed by cells co-transfected with vectors encoding soluble OSM-Rβ/Fc and soluble gp130/Fc (Fc fusion)
chain 1: B1 chain
chain 2: B2 chain
notes: also called OSM-Rβ/Fc and gp130/Fc; experiment F; not shown: 7 amino acid peptide linker encoded by the polylinker of plasmid hIgG1Fc
Take B3: in experiment [3], the binding result is on record as “no binding”.
